B1: TPR 5TU (parent)
chain: GGAUCUUCUCGAUCUAACAAAAAAGACAAAUCUGCCACAAAGCUUGAGAGCAUCUUCGGAUGCAGAGGCGGCAGCCUUCGGUGGCGCGAUAGCGCCAACGUUCUCAACUAUGACACGCAAAACGCGUGCUCCGUUGAAUGGAGUUUAUCAUG

Fewer inactive variants are shown than the library holds.

In the series the parent is B1. The series can be described thus: polymerase ribozyme fitness, log enrichment relative to wild type (log ratio); higher = more active; in vitro selection for triplet polymerase activity. The method in brief:
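Only genotypes with ≥10 input reads and ≥1 read per output were kept after Illumina sequencing of input and output libraries. These libraries were PCR-built, transcribed mutants of each subunit of a heterodimeric triplet polymerase ribozyme, each put through one triplicate in vitro selection round with frozen incubation at −7 °C, gel excision of extended constructs, streptavidin-bead capture and RT-PCR. Fitness is a logarithmic ratio of genotype enrichment to wild-type enrichment, from inverse-variance-weighted replicate averages, with the logarithm in base 2.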
Regarding GGAUCUUCUCGAUCUAACAAAAAAGACAAAUCUGCCACAAUGCUUGAGAGCAUCUUCGGAUGCAGAGGCGGCAGCCUUCGGUCGCGCGAUAGCGCCAACGUUCUCAACUAUGACACGCAAAACGCAUGCUCCGUUGAAUGGAGUUUAUCAUG [A41U G83C G126A], the “polymerase ribozyme fitness (log ratio)” value is -2.3. As for GGAUCUUCUCGAUCUAACAAAAAAGACAAAUCUGCCACAAUGCUUGAGAGCAUCUUCGGAUGCAGAGGCGGCAACCUUCGGUGGCGCGAUAGCGCCAACGUUUUCAACUAUGAUACGCAAAACGCGUGCUCCGCUGAAUGGAGUUUAUCAUG [A41U G74A C103U C114U U134C], the “polymerase ribozyme fitness (log ratio)” value is not above -4.2. With GGAUCUUCUCGAUCUAACAAAAAAGACAAAUCUGCCACAAUGCUUGAGAGCAUCUUCGGAUGCAGAGGCGGCAACCUUCGGUGGCGCGAUAGCCCCAACGUUCUCAACUAUGACACGCAAAACGCGUGCUCCGUUGAAUGGAGUUUAUCAUG [A41U G74A G94C] the figure was not above -4.2. Then GGAUCUUCUCGAUCUAACAAAAAAGACAAAUCUGCCACAAUGCUUGAGAGCAACUUCGGAUGCAGAGGCGGCAGCCUUCGGUGGCGCAAUAGCGCCAACGGUCUCAAUUAUGACACGCAAAACGCGUCCUCCGUUGAAUGGCGUUUAUCAUG [A41U U53A G88A U101G C108U G128C A142C], with not above -4.2; and GGAUCUUCUCGAUCUAACAAAAAAGACAAAUCUGCCACAAUGCUUGAGAGCAUCUUCGGAAGCAGAGUCGGCAGCCUUCGGUGGCGCGAUAGCGCCAACGUUCUCACCUAUGACACGCAAAACGCGUGCUCCGUUGAAUGGAGUGUAUCAUG [A41U U61A G68U A107C U145G], with not above -4.2; and GGAUCUUCUCGAUCUAACAAAAAAGACAAAUCUGCCACAAUGCUUGAGAGCAUCUACGGAUGCAGAGGCGGCAGCCUUCGGUGGAGCGAUAGCGCCAACGUUCUCAACUAUGACACGCAAAACGCGUGCUCCGUUGAAUGGAGUUUAUCAUG [A41U U56A C85A], with -2.38. With GGAUCUUCUCGAUCUAACAAAAAAGACAAAUCUGCCACAAUGCUUGAGAGCAUCAUCGGAUGCAGAGGCGGCAGCCUUCGGUGGCGCGAUAGCGCCAACGUUCUCAACUAUGACACGCAAAACGCGUGCUCCGUUGAAUGGGGUUUAUCAUG [A41U U55A A142G] the figure was -2.45; with GGAUCUUCUCGAUCUAACAAAAAAGACAAAUCUGCCACAAUGCUUGAGAGCAUCCUCGGAUGUAGAGGCGGCAGCCUUCGGUGGCACGAUAGCGCCAACGUUCUCAACUAUGACACGCAAAACGCGUGCUCCGUUGAAUGGAGUUUAUCAUG [A41U U55C C63U G86A], -2.8. Take GGAUCUUCUCGAUCUAACAAAAAAGACAAAUCUGCCACAAUGCUUGAGAGCAUCUUCGGAUGCAGAGGCGGCAGCCUUCCGUGGCGCUAUAGCGCCAACGUUAUCAGCUAUGACACGCAAAACGCGUGCUCCGUUGAAUGGAGUUUAUCAUG [A41U G80C G88U C103A A107G]: the “polymerase ribozyme fitness (log ratio)” value is not above -4.2. As to GGAUCUUCUCGAUCUAACAAAAAAGACAAAUCUGCCACAAUGCUUGAGAGCAUCUUCGGAUGCAGAGGCGGCAGCCUUCGGUUUCGCGAUAGCGCCAUCGUUCUCAACUAUGACACGCAUAACACGUGCUCCGUUGAAUGGAGUUUAUCAUG [A41U G83U G84U A98U A120U G124A], the “polymerase ribozyme fitness (log ratio)” value was -3.95.

As for GGAUCUUCUCGAUCUAACAAAAAAGACAAAUCUGCCACAAUGCUUGAGAGCAUCUUCGGAUGCAGAGGCGGCAGCCUUCGGUUGCGCGAUAGCGCCAACGUUCUCAACUAUGACACGCAAAACGCGUGCUCCGUUGAAUGGAGUUUAUCUUG [A41U G83U A150U], the “polymerase ribozyme fitness (log ratio)” value is -1.02. With GGAUCUUCUCGAUCUAACAAAAAAGACAAAUCUGCCACAAUGCUUGAGAGCAUCUUCGGAUGCAGAGGCGGCAGCCUUCGGUGGCGCGAUAGCGCCAACGUUCUCAACUAUGACACGCAAAACGCGUGCUCCUUAGAAUGGGGUUUUUCAUG [A41U G133U U135A A142G A147U], the “polymerase ribozyme fitness (log ratio)” value is not above -4.2.

Consider GGAUCUUCUCGAUCUAACAAAAAAGACAAAUCUGCCACAAUGCUUGAGAGCAUCUUCGGAUGCAGAGGCGGCAGCCUUCGGUGACGCGAUAGCGCUAACGUUCUCACCUAUGACACGCAAAACGCGUGCUCCGUUGAAUGGAGUUUCUCAUG [A41U G84A C96U A107C A147C], for which the “polymerase ribozyme fitness (log ratio)” value is not above -4.2. For GGAUCUUCUCGAUCUAACAAAAAAGACAAAUCUGCCACAAUGCUUGAGAGCAUCUUCGGAUGCAGAGGCGGCAGCCUUCGGUGGCGCGAUAGCGCCAACGUUCUCAACUAUGACACGCAAAACGCGUGCUCCGUUGAAUGGAGGUUAUCAUA [A41U U144G G152A], the “polymerase ribozyme fitness (log ratio)” value is -1.09. Then GGAUCUUCUCGAUCUAACAAAAAAGACAAAUCUGCCACAAUGCUUGAGAGCAUCUUCGGAUGCAGAGGCGGCAGCCUUCGGUUGCGCGAGAGGGCCAACGUUCUCUACUAUGACACGCAAAACGCGUGCUCCGUUGAAUGGAGUUUAUCAUG [A41U G83U U90G C93G A106U], with not above -4.2. As to GGAUCUUCUCGAUCUAACAAAAAAGACAAAUCUGCCACAAUGCUUGAGAGCAUCUACGGAUGCAGAGGCGGCAGCCUUCGGUGGCGCGAUAGAGCCAACGUUCUCAACUAUGACACGCAAUACGCGUGCUCCGUUGAAUGGAGUUUAUCAUG [A41U U56A C93A A121U], the “polymerase ribozyme fitness (log ratio)” value was -3.16. As for GGAUCUUCUCGAUCUAACAAAAAAGACAAAUCUGCCACAAUGCUUGAGAGCAUCUUCGGAUGCAGAGGCGGCAGCCUUCGGUGGCGCGAUAGCGCAAACGUUCUAAACUAUGACACUCAAAACGCGUGCUCCGUUGAAUGGAGGUUAUCAUG [A41U C96A C105A G117U U144G], the “polymerase ribozyme fitness (log ratio)” value is not above -4.2. GGAUCUUCUCGAUCUAACAAAAAAGACAAAUCUGCCACAAUGCUUGAGAGCAUCUUCGGAUGCAGAGCCGGCAGCCUUCGGUGGCGCGAUUGCGCCAACGUCCUCAACUAUGACACGCAAAACGCGUGCUCCGUUGAAUGGAGUUUAUCAUG [A41U G68C A91U U102C]: the “polymerase ribozyme fitness (log ratio)” value is not above -4.2. GGAUCUUCUCGAUCUAACAAAAAAGACAAAUCUGCCACAAUGCUUGAGAGCAUCUUCGGAUGCAGAGGCGGCAGCCUUCGGUGGCGCGAUAGCGCCAACGUUCUCAACUAUGACACGCAAAACACGUGCUCCGUUGAAUGGAGUUUAUCAUG [A41U G124A]: the “polymerase ribozyme fitness (log ratio)” value was -1.29.

The values are drawn from the RNAGym collection of RNA variant scans (doi:10.1073/pnas.2313332121).
